Data from patent publication US20090282582A1, “ENVIRONMENTAL STRESS RESPONSIVE PROMOTER AND METHOD OF TISSUE-SPECIFIC GENE EXPRESSION USING THE SAME” (RIKEN, priority 2006, published 2009).

Columns and labels:
[1] = test system: Arabidopsis thaliana (columbia ecotype) plant body; experiment: full-length cDNA microarray analysis of gene expression levels after environmental stress application; details: in vivo
Method: In this example, the gene expression levels at the time of application of various types of environmental stresses were analyzed using microarrays. Specifically, the microarrays described in Seki et al., “Monitoring the expression profiles of 7000 Arabidopsis genes under drought, cold, and high-salinity stresses using a full-length cDNA microarray,” Plant J. 31: 279-292, 2002, were used, and analysis was carried out in accordance with the method similar to the method described therein. Various types of environmental stresses were applied to a plant body under the following conditions. Specifically, low-temperature stress application was carried out by introducing a plate containing a plant body into a low-temperature chamber (4° C.). Dehydration stress application was carried out by capturing the plant body with forceps while refraining from damaging the plant body, roughly removing moisture from the plant body on a Kim Towel, placing the plant body on another plate, placing the plate in a clean bench while leaving the lid open, letting it stand for 2 hours, and then closing the lid. Salt stress application was carried out by dispensing a mixture of MS medium (containing 1% sucrose, 0.1% agar, and 1 mM luciferin) with 250 mM NaCl to the roots of the plant bodies (200 μl per plant body) using a Pipetman. ABA stress application was carried out by dispensing a mixture of MS medium (containing 1% sucrose, 0.1% agar, and 1 mM luciferin) with 100 μM ABA to the roots of the plant bodies (200 μl per plant body) using a Pipetman. As a plant body to which environmental stress is to be applied, Arabidopsis thaliana (columbia ecotype), which had been cultivated on a germination medium containing Murashige and Skoog Salt, 3% sucrose, and […] for 3 weeks, was used. Cultivation conditions were determined so as to maintain the temperature in the chamber at 22° C. with a 16-hour light period and an 8-hour dark period. Total RNA was extracted from plant bodies after environmental stress application or from plant bodies to which no environmental stress had been applied using the TRIZOL Reagent (Life Technologies), and mRNA was extracted using the mRNA isolation kit (Militenyi Biotec Auburn). In accordance with the method described in the above article, mRNA samples were reversely transcribed in the presence of Cy3 dUTP or Cy5 dUTP (Amersham Pharmacia). Microarray analysis was carried out using cDNAs obtained via reverse transcription. Data obtained via microarray analysis were analyzed using the Quantarray Version 2.0 (GSI Lumonics).

[2] = test system: transgenic Arabidopsis thaliana plant body (luciferase reporter gene); experiment: luciferase assay of promoter::LUC transgenic plants after environmental stress application; assay type: in vivo; details: for Tissue in which specific induction of expression is realized / time after stress application at which activity to induce gene expression is exhibited: Dehydration stress; for time after stress application at which activity to induce gene expression is lowered: dehydration stress, stem and leaf tissue; for Tissue allowing specific induction: summary over stress types
Method: Specifically, promoter regions were isolated from these genes, transgenic plants in which luciferase reporter genes were to be expressed under the control of such promoters were prepared, and tissue specificity of the promoters was inspected via luciferase assay.
In this example, DNA fragments containing promoter regions of the genes identified in Example 1 were recovered via PCR.
The nucleotide sequences of the amplified DNA fragments were determined in accordance with a conventional technique to confirm that mutagenesis, such as substitution or deletion, was not introduced thereinto. After the absence of mutagenesis was confirmed, the recovered DNA fragments were introduced into the vector for promoter analysis (i.e., a vector prepared by introducing the Gateway recombinant sequence (tradename: Gateway Vector Conversion System, Invitrogen) and the luciferase reporter gene into the pGreen vector (Plant Molecular Biology 42: 819-832, 2000)) using the Gateway recombination system to construct a recombinant vector.
The recombinant vector prepared in (1) above was introduced into a plant via Agrobacterium infection. When a gene is introduced via Agrobacterium infection, a process of infecting a plant with Agrobacterium containing a plasmid comprising the target gene construct is necessary. This process was carried out via vacuum infiltration. Specifically, a plant body of Arabidopsis thaliana that had been grown in soil comprising vermiculite and an equivalent amount of pearlite was soaked in a culture solution of Agrobacterium containing the recombinant vector prepared in (1). The resultant was placed in a desiccator, suctioned with a vacuum pump to 65 to 70 mmHg, and then allowed to stand at room temperature for 5 to 10 minutes. The pot was transferred onto a tray, covered with a wrap, and kept moistened. The wrap was removed on the following day, the plant was allowed to grow in that state, and seeds were then harvested.
Subsequently, seeds were sown on MS agar medium to which antibiotic hygromycin has been added in order to select an individual having the recombinant vector prepared in (1). Arabidopsis thaliana that had been grown in this medium was transferred to a pot and allowed to grow therein. Thus, seeds of transgenic plants to which the recombinant vector prepared in (1) has been introduced were obtained.
The seeds of the transgenic plant lineage prepared in (2) were sowed on MS agar medium. The plant body 10 days after sowing was used for luciferase assay.
At the outset, 1 mM luciferin (containing 0.01% Triton-X) was sprayed over the entire plant body 5 times. After the plant body was allowed to stand in the dark for 5 minutes, luciferase luminescence was assayed using ARGUS (assay after treatment for 0 hours). Subsequently, various types of environmental stresses were applied (see below). Low-temperature stress application was carried out by introducing a plate containing a plant body into a low-temperature chamber (4° C.). Dehydration stress application was carried out by capturing the plant body with forceps while refraining from damaging the plant body, roughly removing moisture from the plant body on a Kim Towel, placing the plant body on another plate, placing the plate in a clean bench while leaving the lid open, letting it stand for 2 hours, and then closing the lid. Salt stress application was carried out by dispensing a mixture of MS medium (containing 1% sucrose, 0.1% agar, and 1 mM luciferin) with 250 mM NaCl to the roots of the plant bodies (200 μl per plant body) using a Pipetman. ABA stress application was carried out by dispensing a mixture of MS medium (containing 1% sucrose, 0.1% agar, and 1 mM luciferin) with 100 μM ABA to the roots of the plant bodies (200 μl per plant body) using a Pipetman.
Luciferase luminescence was assayed 2, 5, and 10 hours after the above various types of environmental stresses had been applied using the ARGUS system (Hamamatsu Photonics). […]

Molecule | Environmental stress type to which the promoter responds [1] | Tissue in which specific induction of expression is realized [2] | time after stress application at which activity to induce gene expression is exhibited [2] | Tissue in which specific induction of expression is realized ([2]; listed as promoter of RAFL06-16-J10) | time after stress application at which activity to induce gene expression is lowered [2] | Tissue allowing specific induction [2] | Tissue in which specific induction of expression is realized ([2]; listed as promoter of RAFL07-08-I12)
Promoter of RAFL06-16-J10: environmental stress responsive promoter DNA, SEQ ID NO: 5, upstream of At2g06050 (OPR3 gene) (nucleic acid, listed as Arabidopsis thaliana) DNA: CCTGGGACTTGGGCTGAGAATAATGAAGTGGCTGGGAAATGATTAGTTAAGGATGGCTTGATGAATTCTCAATATTCTGTTGAGGGAACAAAATATACTAGGAAGGATGCAAGTCCAGTTTGGTCTAAACCATTGTACGAACCAAAAACAATCAATAAAGTAACTCAGGGCTCACAAATGGTCGATAATATTTCTAAAGTTTCAGTTCTAGAGGATGAGCAAAAGGATTTGATGATGGGAGATGTACTAGAGGTACAAGACAAGAGTCTCACTGAAGGGTTGAATTTCAGATATTTTAAATCACGTTTGGAGTAACAAAAAACAAATGTGAGAAGGAGCTCAATTAGCTCCAACTGAATCTAGTGTTATTAGGGATACTTTGGAAACTCCAATTCAATCTTTAAGATGTAGGATTGATGAATTCATGGAAATCGGCAGATCCATCTATGAATTTAGTATGGTGGTGTTTCCTAGGAATTGACAATACAATTTTACTTGGTGCAAAGTGTCTTCGGAGGTGTCCCTTTCTTTTTCACTCGGAATTGGAAGTTTTAATATTGGCAATAAAAAATATCCTTTCAAGAAGGATAAAGTGTCAGGCATTTGAAACAGATAATTATTCAGAGTAAGTTTTGATGGTACAGTCCCCTGAAGAATGACTCGCTTTCTCTAATTTTTTAGAAGATCTTGAATTGCTATGTGTCTCCTTTTCTTGCTTTCTTCTATTTCATGTTTATGTAATACTAAGGCAAACTATTTAGCACAATATTCTAAACTTTTATTTTCTGAAGTTATTTTTTAAACCCTTTCCCTCCTAATTGGACAACCAATCATGGAATTAGTTTTTACGTAATGTTTTAAACTCACTATTTCACCTTTATTCTGACCTGTTAATGGAAGACAACTATGACTTTATACATTGAAATGTTGTCAACCTGTTATATATTAATGTTAACATAGCTAATGACCTATCAATGTACGTAAAGCGAATGTCAATCATATTCGTATCCGTTAATTTCATTTAGGAAATCAGGCTCATTGCCAATCCACTAAGAAACATCTCTGATAGATCCAAATAATAAAAATAATATAATATGAAGCAAAATAGAACGAAATATCTCACGCGGACCAAACTTTGAACTTTATTATAAAACAAATCAGCACGTGAAAGTAATGGTCGGTTCGGTCCAAGATGCCAAGAACTCCTCCGGTCCATCCATCAACCTAACCTTTTTTGGATATAAAATTTAGCAAATTCCATTTCCACGACCACACAACAACAACACATCCACTCGAATTTTCTATTTCCGAATAACAAAACCGGTAAACTCATCACAAACTTAAGTTACTTTGTAGTTTGTGTTTTGTCCTTTTATGTAATGAAGAAGATCCAACTAACTACTACTCAATATTTTTGTATTGACCGTTGATTTCTCAGATCTGACTTTTACTTCTCCTTCTTCCAGATCGGCGGAGAC | Dehydration and salt | Stem and leaf tissue | about 2 hours | stem and leaf tissue | about 10 hours | Stem and leaf tissue | –
Promoter of RAFL07-08-I12: environmental stress responsive promoter DNA, SEQ ID NO: 6, upstream of At2g26530 (homolog of calmodulin-binding protein) (nucleic acid, listed as Arabidopsis thaliana) DNA: CGGGTTTTATTTTGGAATTGGGTTATATGGTGGATGTATTTGAATCAATATTTATAAAAATTTAACAATTATCTCATGGATTCGTGGTATAACGTTACCTAATAACAATTATAAACTGTAAAATAAAAATATTTTATAAAAATAAAATTTGCAAGTTTTAATATATATTACTTTTAAAAAATAAATCGTCCCGCGGTATACCGCGGGTTAAAATCTAGTCTATGTTTATTATAAAAGAATACAATGTATTAATGTATAAATTATCTTATGCATGAGCACGATGATCATCTAGTAGTATACATCTTACCCGTCGACAAAAACAAAATGTTCCTTATCCAGTATCTAGATGGATCGTGTGAACTCAATTCTACGTAGAACACAAAAGTCCTCTCGTTTGGTCACTGAATTAATTTGAACGATATTATTTATTAGGACCACCGGTTAAATTGGCCTCGTGGTCTAAATATGCCTTCGAATGGTCCAACAACCATGTGGTCAATGCCGACTATGAAAATGACTGAAAATTCAAAACATGTAAGTGGGTTACCACCACTTATCATTATGTTCCAAATCGTTTGCATTAAACAACTTTATTTCGACACATGCGGTCTGAAAAGGCGGCCAATTAATTTACGTTAATCATCGTTTACTATTATTATCTTCGGAATATTTCCAACACAATCAATCTAGTTGGTTCCAATTCTCATCACATATTTTATTTTATAGTTTAAAGTCTTTCAATTCAGTAGTCTAACTGTATAACATATGACTTCGAACAGATTGATATAGACCACTCAATCTAATAATATCGTTTTAGCTACGAAGAGTATACAAAAAAAGCTAGTTGGATAGTTTAAAAATTAAATGCTAGAAGAATGTTGGATATATCAAACAATAAAATTAATATTTAGAGAGAAAATATCGTAATAGAGTTTTTTCTATAAATAAATTTTTGAGTTAAAAAATATTATTAGCCTGACCAAACTCTTTTTATTTCTTTAAACTATGACAGTAAGATCTAAATTTTAATAAACCAATGTTTATTTAATATTTTCAGAAATGGGCTAAAAATGACTAGTTGTTGTATGTGTTTCCTTTGAATAAAAGCTCAACAAACAAAAACTAGAAGTCATTATGTAAAAAAACTAATGACATAGTATTAGGTATTTTTTGCAAATTATTCACACATGTTGCCAAAAGTTGTTTTTTATATTATATGTTTGGTCAGCGAAAACGGTTTAAAGCACTCTCTCTTTCCTCTCGCCTTCCTTTGATGATCCTTTTTAGTTCCCTTCTTCTCATTGCTCTTGAGACCATCTCCGAACTCAAAGGAAACTAGAAACA | Dehydration and salt | Stem and leaf tissue | about 2 hours | – | about 5 hours | Stem and leaf tissue | stem and leaf tissue
